From paper PMC7430568 come the findings set out here.

A value given as a limit tells only on which side of the number the result lay.

A word on the Kd: it is the constant that tells how readily two partners part at equilibrium. The term IC50 denotes the point on the concentration scale where inhibition reaches its midpoint.

Test [1] has as its target SARS-CoV-2 Spike* (mutant, pre-fusion stabilised Spike protein ectodomain) (SARS-CoV-2, Wuhan-Hu-1). The test can be described thus: SPR. Background: In SPR one partner is held on a chip, and binding of the other changes the refractive index at the surface.
Test [2] shares this target.

Turning to mNb6-tri (trivalent mNb6) (VHH), in test [1], the dissociation constant Kd was < 0.001 nM. The IC50 in test [2] was found to be 0.4 nM.
With “Nb6-tri (trivalent Nb6 with two 20 amino acid linkers) (VHH)”, the kd2 (slow phase of dissociation) in test [1] was < 1e-06 s⁻¹. For the same substance, the IC50 in test [2] worked out at 1.5 nM.
